The values below come from publication PMC12116771.

The subject of data set [1] is Scd6 (His-Scd6-FLAG), arginine-methylated in vitro by Hmt1 (Saccharomyces cerevisiae). The data set is described as follows: EMSA. The following applies: EMSA: 10 mM Tris pH 8, 50 mM NaCl, 0.05% NP-40, 6% glycerol, 1 mM DTT, 2 ug/ml BSA, 0.5 ug/ml tRNA, 30 C 30 min; 2.5% agarose, 1x MOPS, EtBr. (In general: In EMSA bound probe runs differently from free probe, usually more slowly.)

For data set [2], the system named is Scd6 (His-Scd6-FLAG, unmethylated) (Saccharomyces cerevisiae). The data set is described as follows: EMSA. The following applies: EMSA: 10 mM Tris pH 8, 50 mM NaCl, 0.05% NP-40, 6% glycerol, 1 mM DTT, 2 ug/ml BSA, 0.5 ug/ml tRNA, 30 C 30 min; 2.5% agarose, 1x MOPS, EtBr.

As usually defined, the Kd is the equilibrium constant for the complex coming apart. A low value points to higher affinity. With SRS2 5'UTR 200-mer RNA, the results for the Kd in data set [1] and in data set [2] were 2700 nM and 2860 nM, respectively.
